Patent publication US20080182978A1, “ANTI-NGF ANTIBODIES AND METHODS USING SAME” (RINAT NEUROSCIENCE CORP, priority 2002, published 2008)
Changes are numbered by the printed parent chain. Numbers in names are those of the source.

B1: 3C: H19-L129 with CDR-L3 S91E, K92R and CDR-H3 Y101W, G103A (antibody, V domains shown)
VH: QVQLQESGPGLVKPSETLSLTCTVSGFSLIGYDLNWIRQPPGKGLEWIGIIWGDGTTDYNSAVKSRVTISKDTSKNQFSLKLSSVTAADTAVYYCARGGYWYATSYYFDYWGQGTLVTVS
VL: DIQMTQSPSSLSASVGDRVTITCRASQSISNNLNWYQQKPGKAPKLLIYYTSRFHSGVPSRFSGSGSGTDFTFTISSLQPEDIATYYCQQERTLPYTFGQGTKLEIKRT
B2: H19-L129: combined clone with matured CDRs H1, H2, L1, L2 and grafted H3 and L3 (antibody, V domains shown)
VH: B1 VH with W101Y, A103G
VL: B1 VL with E91S, R92K

Assays:
human NGF [1] = target: T1, human NGF (Homo sapiens, UniProt P01138); assay: Mouse E13.5 trigeminal neuron survival assay, human NGF; type: cell-based; conditions: 1.5 or 15 pM human NGF
T1 sequence (P01138 122-241): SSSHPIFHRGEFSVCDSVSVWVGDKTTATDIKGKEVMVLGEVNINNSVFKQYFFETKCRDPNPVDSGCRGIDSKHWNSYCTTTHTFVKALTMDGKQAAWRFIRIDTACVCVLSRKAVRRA
Description: (§1) The ability of Fab E3 or full antibody E3 to block NGF activity was evaluated by measurement of the capacity of the antibody to inhibit NGF-dependent survival of mouse E13.5 trigeminal neurons in vitro. The trigeminal ganglion is comprised of cutaneous sensory neurons that innervate the facial region. The survival of mouse E13.5 trigeminal neurons is a sensitive assay to evaluate the NGF-blocking activity of anti-NGF antagonist antibodies because NGF is required to support survival of these neurons. For example, at saturating concentrations of NGF, the survival is close to 100% by 48 hours in culture. By contrast, less than 5% of the neurons survive by 48 hours in absence of NGF.
(§2) The survival assay was conducted as follows: time-mated pregnant Swiss Webster female mice were euthanized by CO2 inhalation. The uterine horns were removed and the embryos at embryonic stage E13.5 were extracted and decapitated. The trigeminal ganglia were dissected using electrolytically sharpened tungsten needles. The ganglia were then trypsinized, mechanically dissociated and plated at a density of 200-300 cells per well in defined, serum-free medium in 96-well plates coated with poly-L-ornithine and laminin.
After 48 hours in culture, the cells were subjected to an automated immunocytochemistry protocol performed on a Biomek FX liquid handling workstation (Beckman Coulter) as follows: fixation using 4% formaldehyde, 5% sucrose, and PBS; permeabilization using 0.3% Triton X-100 in PBS); blocking of unspecific binding sites using 5% normal goat serum, 0.11% BSA in PBS; and sequential incubation with a primary and secondary antibodies to detect neurons. The primary antibody was rabbit polyclonal antibody against the protein gene product […] (PGP9.5, Chemicon), an established neuronal phenotypic marker. The secondary antibody was Alexa Fluor 488 goat anti-rabbit (Molecular Probes), together with the nuclear dye Hoechst 33342 (Molecular Probes) to label the nuclei of all the cells present in the culture. […]

rat NGF = rat NGF (Rattus norvegicus, UniProt P25427); assay: Mouse E13.5 trigeminal neuron survival assay, rat NGF; type: cell-based; conditions: 1.5 or 15 pM rat NGF
Chain of rat NGF (P25427 122-241): as the sequence (P01138 122-241) above, with S3T, I6V, R9M, M37T, D60A, D65E, M92T, G94D, V117A, A120G counted along it
Description: as §1
as §2, with “laminin. […]” for “laminin.”

human NGF [2] = target: T1, human NGF; assay: BIAcore affinity determination assay (kon, koff, KD of purified Fabs); type: binding; conditions: Fab on immobilized human NGF
Description: (§3) Affinities of anti-NGF Fabs and monoclonal antibodies were determined using the BIAcore300™ surface plasmon resonance (SPR) system (BIAcore, INC, Piscaway N.J.). CM5 chips were activated with N-ethyl-N′-(3-dimethylaminopropyl)-carbodimide hydrochloride (EDC) and N-hydroxysuccinimide (NHS) according to the supplier's instructions. Human NGF was diluted into 10 mM sodium acetate pH 4.0 and injected over the activated chip at a concentration of 0.005 mg/mL. Using variable flow time across the individual chip channels, two ranges of antigen density were achieved: 100-200 response units (RU) for detailed kinetic studies and 500-600 RU for screening assays. The chip was blocked with ethanolamine. […] HBS-EP buffer (0.01M HEPES, pH 7.4, 0.15 NaCl, 3 mM EDTA, 0.005% Surfactant […]) was used as running buffer for all the BIAcore assays.
Serial dilutions (0.1-10× estimated KD) of purified Fab samples were injected for 1 min at 100 μL/min and dissociation times of up to 2 h were allowed. The concentrations of the Fab proteins were determined by ELISA and/or SDS-PAGE electrophoresis using as a standard a Fab of known concentration (as determined by amino acid analysis). Kinetic association rates (kon) and dissociation rates (koff) were obtained simultaneously by fitting the data to a 1:1 Langmuir binding model (Karlsson, R. Roos, H. Fagerstam, L. Petersson, B. (1994). Methods Enzymology 6. 99-110) using the BIAevaluation program. Equilibrium dissociation constant (KD) values were calculated as koff/kon.
The binding affinities to human NGF of Fabs E3 and 3C were measured using BIAcore analysis according to the manufacturer's instructions and as described above, except that 100 RU NGF was used on chip to prevent a rebinding effect. Briefly, several concentrations of antibodies (Fabs) were injected for 2 minutes onto a CM5 chip with 100 RU of immobilized human NGF on it, and permitted to dissociate for 1800 seconds. Mouse antibody 911 (Fab) was analyzed as a control. Data was analyzed using BIAevaluation software following the manufacturer's instructions. E3 bound human NGF with a KD of approximately 0.07 nM (and with a kon of about 6.0e5 M-1s-1, and a koff of about 4.2e-5s-1).

human NGF [3] = target: T1, human NGF; assay: BIAcore screening assay of Fab library clones (koff); type: binding
Description: Small scale expression in 96 wells plates was optimized for screening Fab libraries. Starting from E. coli transformed with a Fab library, colonies were picked to inoculate both a master plate (agar LB+Ampicillin (50 μg/ml)+2% Glucose) and a working plate (2 ml/well, 96 well/plate containing 1.5 mL of LB+Ampicillin (50 μg/ml)+2% Glucose). Both plates were grown at 30° C. for 8-12 hours. The master plate was stored at 4° C. and the cells from the working plate were pelleted at 5000 rpm and resuspended with 1 mL of LB+Ampicillin (50 μg/ml)+1 mM IPTG to induce expression of Fabs. Cells were harvested by centrifugation after 5 h expression time at 30° C., then resuspended in 500 μL of buffer HBS-EP ([…] buffer pH 7.4, 150 mM NaCl, 0.005% P20, 3 mM EDTA). Lysis of HBS-EP resuspended cells was attained by one cycle of freezing (−80° C.) then thawing at 37° C. Cell lysates were centrifuged at 5000 rpm for 30 min to separate cell debris from supernatants containing Fabs. The supernatants were then injected into the BIAcore plasmon resonance apparatus to obtain affinity information for each Fab. Clones expressing Fabs were rescued from the master plate to sequence the DNA and for large scale Fab production and detailed characterization as described below.
as §3
A screening BIAcore assay was optimized to determine the affinity of Fab clones from libraries. Supernatants of small culture lysates were injected at 50 μl/min for 2 min. Dissociation times of 10 to 15 minutes were used for determination of a single exponential dissociation rate (koff) using BIAevaluation software. […] Clones showing improved (slower) koff values were expressed at large scale and full kinetic parameters, kon and koff, were determined on purified protein. The assay was capable of detecting differences in affinity that were approximately 2-fold or larger.
For affinity screening experiments, each library was further paired with the corresponding CDR-grafted light or heavy chain (for example, the H1/H2 library was paired with CDR-grafted light chain), the antibody was expressed, and affinity to human NGF of the individual clones was screened using the BIACORE surface plasmon resonance (SPR) system (BIAcore, Inc. Piscataway, N.J.) according to the manufacturer's instructions and as described above. koff, kon and KD were determined. Antibody clones were ranked based on koff rates, since generally most variation in affinity is seen in koff rates, and further because koff rates are independent of antibody concentration.
20-80 clones from each small library were screened using BIAcore analysis as described herein. Samples were simultaneously analyzed by BIAcore for binding affinity to NGF in one channel of the BIAcore chip and for presence of Fab by binding to a penta-histag antibody in another channel of the sensor chip, to detect the his tag at the C terminus of the heavy chain. Clones that expressed protein were classified as having the same affinity, worse affinity, better affinity or no binding, using koff to classify: The results of this analysis are shown in Table 5.

[4] = Table 8: CDR L3 H3 combination mutations, H19-L129 template (H1H2L1L2 matured)

| Molecule | blocking of human NGF-dependent trigeminal neuron survival (human NGF [1]) | blocking of rat NGF-dependent trigeminal neuron survival (rat NGF) | koff (human NGF [2]) | koff (human NGF [3]; [4]) | koff (human NGF [3]; Table 4: combination clone, mutations in CDRs H1, H2, L1, L2) |
| --- | --- | --- | --- | --- | --- |
| B1 | strongly blocked | strongly blocked | about 1.4E-5 s^−1 | 1.4e-05 s⁻¹ |  |
| B2 | strongly blocked | strongly blocked |  | 1.1 e-4 s-1 | 0.00011 s⁻¹ |
